# Results taken from publication PMC2976847 (Frontiers in bioscience : a journal and virtual library, 2008).
# Values joined by “and” are separate entries in the source; they are usually repeats but may differ in a detail not shown here. Equal entries are not always repeated.
# Target: the molecule itself
# Assay: native gel or EMSA
protein,measurement,value
"Stat5a (wild type), from Epo-stimulated 293T cells (natural protein) MAGWIQAQQLQGDALRQMQVLYGQHFPIEVRHYLAQWIESQPWDAIDLDNPQDRGQATQLLEGLVQELQKKAEHQVGEDGFLLKIKLGHYATQLQNTYDRCPMELVRCIRHILYNEQRLVREANNCSSPAGVLVDAMSQKHLQINQRFEELRLITQDTENELKKLQQTQEYFIIQYQESLRIQAQFAQLGQLNPQERMSRETALQQKQVSLETWLQREAQTLQQYRVELAEKHQKTLQLLRKQQTIILDDELIQWKRRQQLAGNGGPPEGSLDVLQSWCEKLAEIIWQNRQQIRRAEHLCQQLPIPGPVEEMLAEVNATITDIISALVTSTFIIEKQPPQVLKTQTKFAATVRLLVGGKLNVHMNPPQVKATIISEQQAKSLLKNENTRNECSGEILNNCCVMEYHQATGTLSAHFRNMSLKRIKRADRRGAESVTEEKFTVLFESQFSVGSNELVFQVKTLSLPVVVIVHGSQDHNATATVLWDNAFAEPGRVPFAVPDKVLWPQLCEALNMKFKAEVQSNRGLTKENLVFLAQKLFNISSNHLEDYNSMSVSWSQFNRENLPGWNYTFWQWFDGVMEVLKKHHKPHWNDGAILGFVNKQQAHDLLINKPDGTFLLRFSDSEIGGITIAWKFDSPDRNLWNLKPFTTRDFSIRSLADRLGDLNYLIYVFPDRPKDEVFAKYYTPVLAKAVDGYVKPQIKQVVPEFVNASTDAGASATYMDQAPSPVVCPQPHYNMYPPNPDPVLDQDGEFDLDESMDVARHVEELLRRPMDSLDARLSPPAGLFTSARSSLS",stoichiometry N,4 and 2
